We go through 3 variants from IntAct's records for PubMed 21516122.

The chains are these.
B1: Histone-lysine N-methyltransferase PRDM16 (Homo sapiens), Q9HAZ2-4 (parent)
chain: MCQISEQIYYKVIKDIEPGEELLVHVKEGVYPLGTVPPGLDEEPTFRCDECDELFQSKLDLRRHKKYTCGSVGAALYEGLAEELKPEGLGGGSGQAHECKDCERMFPNKYSLEQHMVIHTEEREYKCDQCPKAFNWKSNLIRHQMSHDSGKRFECENCVKVFTDPSNLQRHIRSQHVGARAHACPDCGKTFATSSGLKQHKHIHSTVKPFICEVCHKSYTQFSNLCRHKRMHADCRTQIKCKDCGQMFSTTSSLNKHRRFCEGKNHYTPGGIFAPGLPLTPSPMMDKAKPSPSLNHASLGFNEYFPSRPHPGSLPFSTAPPTFPALTPGFPGIFPPSLYPRPPLLPPTSLLKSPLNHTQDAKLPSPLGNPALPLVSAVSNSSQGTTAAAGPEEKFESRLEDSCVEKLKTRSSDMSDGSDFEDVNTTTGTDLDTTTGTGSDLDSDVDSDPDKDKGKGKSAEGQPKFGGGLAPPGAPNSVAEVPVFYSQHSFFPPPDEQLLTATGAAGDSIKAIASIAEKYFGPGFMGMQEKKLGSLPYHSAFPFQFLPNFPHSLYPFTDRALAHNLLVKAEPKSPRDALKVGGPSAECPFDLTTKPKDVKPILPMPKGPSAPASGEEQPLDLSIGSRARASQNGGGREPRKNHVYGERKLGAGEGLPQVCPARMPQQPPLHYAKPSPFFMDPIYSRVEKRKVTDPVGALKEKYLRPSPLLFHPQMSAIETMTEKLESFAAMKADSGSSLQPLPHHPFNFRSPPPTLSDPILRKGKERYTCRYCGKIFPRSANLTRHLRTHTGEQPYRCKYCDRSFSISSNLQRHVRNIHNKEKPFKCHLCNRCFGQQTNLDRHLKKHEHENAPVSQHPGVLTNHLGTSASSPTSESDNHALLDEKEDSYFSEIRNFIANSEMNQASTRTEKRADMQIVDGSAQCPGLASEKQEDVEEEDDDDLEEDDEDSLAGKSQDDTVSPAPEPQAAYEDEEDEEPAASLAVGFDHTRRCAEDHEGGLLALEPMPTFGKGLDLRRAAEEAFEVKDVLNSTLDSEALKHTLCRQAKNQAYAMMLSLSEDTPLHTPSQGSLDAWLKVTGATSESGAFHPINHL

Variants of B1 are the subject of assay [1]. The settings on record: with hdac2_chick HDAC2, P56519.
Assay [2] covers variants of B1. Conditions: with ctbp2_mouse Ctbp2, P56546.
In assay [3] the parent is B1. Conditions: with ctbp2_mouse Ctbp2, P56546. This is another data set of the same source.

Sequence of hdac2_chick HDAC2, P56519 (P56519 whole entry): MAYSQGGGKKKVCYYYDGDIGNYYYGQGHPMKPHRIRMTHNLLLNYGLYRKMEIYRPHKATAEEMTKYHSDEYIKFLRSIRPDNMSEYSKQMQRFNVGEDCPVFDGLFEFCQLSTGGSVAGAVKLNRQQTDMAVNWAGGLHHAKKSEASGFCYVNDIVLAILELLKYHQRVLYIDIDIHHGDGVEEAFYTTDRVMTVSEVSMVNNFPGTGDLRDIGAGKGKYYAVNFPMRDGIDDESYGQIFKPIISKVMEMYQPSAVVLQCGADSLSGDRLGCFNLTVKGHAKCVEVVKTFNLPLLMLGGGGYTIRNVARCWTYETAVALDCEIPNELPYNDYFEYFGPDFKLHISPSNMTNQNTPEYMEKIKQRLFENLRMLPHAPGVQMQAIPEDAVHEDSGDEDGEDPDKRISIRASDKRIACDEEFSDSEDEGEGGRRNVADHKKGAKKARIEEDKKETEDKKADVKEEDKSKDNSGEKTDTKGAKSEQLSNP
Sequence of ctbp2_mouse Ctbp2, P56546 (P56546 whole entry): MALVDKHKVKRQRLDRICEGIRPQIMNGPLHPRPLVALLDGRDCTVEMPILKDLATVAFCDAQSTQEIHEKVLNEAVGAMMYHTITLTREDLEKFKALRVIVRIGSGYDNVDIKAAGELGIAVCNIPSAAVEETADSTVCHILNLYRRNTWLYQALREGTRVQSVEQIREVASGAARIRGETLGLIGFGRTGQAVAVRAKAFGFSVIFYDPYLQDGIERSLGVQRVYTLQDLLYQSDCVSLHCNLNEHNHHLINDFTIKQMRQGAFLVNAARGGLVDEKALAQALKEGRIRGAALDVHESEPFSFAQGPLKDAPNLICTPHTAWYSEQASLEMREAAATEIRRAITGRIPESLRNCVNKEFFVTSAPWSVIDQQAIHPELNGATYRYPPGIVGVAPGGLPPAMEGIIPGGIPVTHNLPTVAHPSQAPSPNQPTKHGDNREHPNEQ

For the variant K568R, the “effect of a mutation on the interaction” value in assay [1] is on record as “decreasing interaction”.
Regarding K568R;D590A;L591S;L619S;D620A, in assay [1], the “effect of a mutation on the interaction” value was “decreasing interaction”.
As for D590A;L591S;D620A;L621S, the “effect of a mutation on the interaction” value in assay [2] is “disrupting interaction”; in assay [3], “disrupting interaction”; in assay [1], “decreasing interaction”.
